According to PMC2935088:

Target: T1, DesT (selenomethionine) (Pseudomonas aeruginosa, UniProt Q9HUS3 1-209)
T1 sequence: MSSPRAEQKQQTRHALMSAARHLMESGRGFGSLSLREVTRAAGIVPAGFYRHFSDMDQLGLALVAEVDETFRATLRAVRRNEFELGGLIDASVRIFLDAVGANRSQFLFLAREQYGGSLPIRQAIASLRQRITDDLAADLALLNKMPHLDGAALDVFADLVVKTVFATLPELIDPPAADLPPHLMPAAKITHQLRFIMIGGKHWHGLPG
Assay: X-ray crystallography

B1: desCB promoter 30mer crystallization duplex (dsDNA)
DNA 1: TTACATCAGTGAACGCTTGTTGACTCGATTG
DNA 2: CAATCGAGTCAACAAGCGTTCACTGATGTA
binding result: binds
